The target of assay [1] is T1, human PD-L2 on CHO cells (human, UniProt Q9BQ51 20-273).
T1 sequence: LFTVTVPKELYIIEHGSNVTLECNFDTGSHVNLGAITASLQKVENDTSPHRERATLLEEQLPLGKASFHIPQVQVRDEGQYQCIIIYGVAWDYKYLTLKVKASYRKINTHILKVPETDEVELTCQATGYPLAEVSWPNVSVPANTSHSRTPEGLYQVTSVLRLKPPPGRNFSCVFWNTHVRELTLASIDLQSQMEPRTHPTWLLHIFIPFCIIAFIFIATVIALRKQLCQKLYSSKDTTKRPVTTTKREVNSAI
Kind of assay: cell-based or functional assay.

The target of assay [2] is human PD-L1 on CHO cells (human, UniProt Q9NZQ7 19-290). Kind of assay: cell-based or functional assay.
Assay [3] deals with T2, Human PD-L1-HIS (human, UniProt Q9NZQ7 19-238).
T2 construct: also called HIS-tagged monovalent PD-L1; His-tagged human PD-L1; not shown: His tag
Kind of assay: ForteBio, IgG, monovalent.

Assay [4] concerns the target T3, Human PD-L2-HIS (human, UniProt Q9BQ51 20-220).
T3 construct: also called His-tagged human PD-L2; not shown: His tag
T3 sequence: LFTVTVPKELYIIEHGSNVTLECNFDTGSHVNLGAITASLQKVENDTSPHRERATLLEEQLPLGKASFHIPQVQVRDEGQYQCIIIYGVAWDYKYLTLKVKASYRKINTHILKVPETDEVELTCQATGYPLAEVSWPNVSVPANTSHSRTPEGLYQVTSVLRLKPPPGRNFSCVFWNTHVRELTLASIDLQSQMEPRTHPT
As to the kind of experiment: ForteBio, IgG, monovalent. A general note: In BLI a coated tip is dipped into the sample, and binding shifts an interference pattern.

In assay [5] the target is T4, Mouse PD-L1-Fc (mouse, UniProt Q9EP73 19-239, limits assumed).
T4 construct: also called murine PD-L1; not shown: Fc
As to the kind of experiment: ForteBio, IgG, avid.

Assay [6] has as its target T5, Cyno PD-L1-Fc (cynomolgus, UniProt G7PSE7 19-238).
T5 construct: also called cynomolgus PD-L1
As to the kind of experiment: ForteBio, IgG, avid.

For assay [7], the target named is T6, Cyno PD-L2-Fc (cynomolgus, UniProt A0A2K5U5Z4 20-220).
T6 construct: also called cynomolgus PD-L2; not shown: Fc
T6 sequence: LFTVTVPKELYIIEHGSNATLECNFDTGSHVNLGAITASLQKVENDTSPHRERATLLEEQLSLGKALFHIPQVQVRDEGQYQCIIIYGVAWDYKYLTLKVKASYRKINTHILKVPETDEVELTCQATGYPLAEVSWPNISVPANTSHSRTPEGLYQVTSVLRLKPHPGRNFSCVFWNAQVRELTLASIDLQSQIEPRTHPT
Kind of assay: ForteBio, IgG, avid.

The target in assay [8] is T7, Mouse PD-L2-Fc (mouse, UniProt Q9WUL5 20-219, limits assumed).
T7 construct: also called murine PD-L2; not shown: Fc
T7 sequence (looked up): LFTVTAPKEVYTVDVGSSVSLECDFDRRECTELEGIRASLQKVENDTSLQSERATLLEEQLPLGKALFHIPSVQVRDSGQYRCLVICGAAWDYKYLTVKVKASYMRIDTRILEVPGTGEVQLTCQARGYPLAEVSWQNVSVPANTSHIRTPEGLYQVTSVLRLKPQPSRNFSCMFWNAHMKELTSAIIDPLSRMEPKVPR
As to the kind of experiment: ForteBio, IgG, avid.

In assay [9] the target is T8, Human b-PD-L2-His (human, UniProt Q9BQ51 20-220, biotinylated (b-); sites not stated).
T8 construct: Antigen of the MSD-SET measurements; also called biotinylated human PD-L2-His; not shown: His tag
T8 sequence: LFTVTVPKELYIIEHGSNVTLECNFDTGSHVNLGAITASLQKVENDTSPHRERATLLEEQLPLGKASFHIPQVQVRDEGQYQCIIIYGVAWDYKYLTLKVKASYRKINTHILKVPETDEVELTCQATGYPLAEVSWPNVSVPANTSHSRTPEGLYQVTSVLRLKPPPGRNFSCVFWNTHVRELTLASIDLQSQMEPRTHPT
As to the kind of experiment: MSD-SET, Fab, monovalent. How it is done: Briefly, solution equilibrium titrations (SET) were performed in PBS +0.1% IgG-Free BSA (PBSF) with antigen held constant at 50 pM and incubated with 3- to 5-fold serial dilutions of Fab starting at 20 nM. Antibodies (20 nM in PBS) were coated onto standard bind MSD®-ECL plates overnight at 4° C. or at room temperature for 30 min. Plates were then blocked by BSA for 30 min with shaking at 700 rpm, followed by three washes with wash buffer (PBSF+0.05% Tween 20). SET samples were applied and incubated on the plates for 150 s with shaking at 700 rpm followed by one wash. Antigen captured on a plate was detected with 250 ng/mL sulfotag-labeled streptavidin in PBSF by incubation on the plate for 3 min. The plates were washed three times with wash buffer and then read on the MSD® Sector Imager 2400 instrument using 1× Read Buffer T with surfactant. The percent free antigen was plotted as a function of titrated antibody in Prism and fit to a quadratic equation to extract the KD. To improve throughput, liquid handling robots were used throughout MSD®-SET experiments, including SET sample preparation.

Assay [10] deals with T9, Human PD-L2-Fc (human, UniProt Q9BQ51 20-220).
T9 construct: also called dimeric PD-L2; PD-L2 (dimeric ligand); not shown: human IgG1 Fc constant region
T9 sequence: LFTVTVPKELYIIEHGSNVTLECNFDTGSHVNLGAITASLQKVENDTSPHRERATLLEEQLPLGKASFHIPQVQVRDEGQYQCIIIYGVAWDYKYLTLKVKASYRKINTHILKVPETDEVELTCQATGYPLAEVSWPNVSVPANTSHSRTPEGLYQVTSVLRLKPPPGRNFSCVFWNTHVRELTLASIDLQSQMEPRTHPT
Kind of assay: ForteBio, Fab, monovalent. How it is done:
(§1) ForteBio KD measurements—ForteBio affinity measurements were performed on an Octet® RED384 generally as previously described (see, e.g., Estep et al., 2013). Briefly, ForteBio affinity measurements were performed by loading IgGs on-line onto AHQ sensors. Sensors were equilibrated off-line in assay buffer for 30 min and then monitored on-line for 60 seconds for baseline establishment. Sensors with loaded IgGs were exposed to 100 nM antigen for 3 minutes, and afterwards were transferred to assay buffer for 3 min for off-rate measurement. For monovalent affinity assessment Fabs were used instead of IgGs. For this assessment the […] Fc fusion antigen was loaded on-line onto the AHQ sensors. Sensors were equilibrated off-line in assay buffer for 30 min and then monitored on-line for 60 seconds for baseline establishment. Sensors with loaded antigen were exposed to 100 nM Fab for 3 minutes, and afterwards they were transferred to assay buffer for 3 min for off-rate measurement. All kinetics were analyzed using the 1:1 binding model.

The target in assay [11] is T10, Human PD-L1-Fc (human, UniProt Q9NZQ7 19-238).
T10 construct: also called dimeric PD-L1; PD-L1 (dimeric ligand); not shown: human IgG1 Fc constant region
As to the kind of experiment: ForteBio, Fab, monovalent. How it is done: as §1

T4 sequence (Q9EP73 19-239 limits assumed): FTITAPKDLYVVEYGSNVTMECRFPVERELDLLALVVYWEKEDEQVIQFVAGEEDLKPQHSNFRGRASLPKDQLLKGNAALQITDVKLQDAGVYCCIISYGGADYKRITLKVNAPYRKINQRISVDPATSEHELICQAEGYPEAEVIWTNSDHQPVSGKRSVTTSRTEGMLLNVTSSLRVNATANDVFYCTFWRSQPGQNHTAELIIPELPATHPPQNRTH
T5 sequence (G7PSE7 entry or part of it limits assumed): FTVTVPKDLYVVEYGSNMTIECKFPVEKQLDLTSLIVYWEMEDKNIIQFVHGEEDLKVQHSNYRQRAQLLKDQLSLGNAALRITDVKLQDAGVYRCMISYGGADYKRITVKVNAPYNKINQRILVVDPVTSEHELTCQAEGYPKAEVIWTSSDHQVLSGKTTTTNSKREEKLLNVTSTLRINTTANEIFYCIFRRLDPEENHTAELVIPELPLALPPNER
T10 sequence (Q9NZQ7 19-238 limits assumed): as the sequence (G7PSE7 entry or part of it limits assumed) above, with T33A, S34A, N62S, Q68R, R82Q, L173F, A185T, I192T, L215H counted along it
T2 sequence (Q9NZQ7 19-238 limits assumed): as the sequence (G7PSE7 entry or part of it limits assumed) above, with T33A, S34A, N62S, Q68R, R82Q, L173F, A185T, I192T, L215H counted along it
Sequence of human PD-L1 on CHO cells (Q9NZQ7 19-290 limits assumed): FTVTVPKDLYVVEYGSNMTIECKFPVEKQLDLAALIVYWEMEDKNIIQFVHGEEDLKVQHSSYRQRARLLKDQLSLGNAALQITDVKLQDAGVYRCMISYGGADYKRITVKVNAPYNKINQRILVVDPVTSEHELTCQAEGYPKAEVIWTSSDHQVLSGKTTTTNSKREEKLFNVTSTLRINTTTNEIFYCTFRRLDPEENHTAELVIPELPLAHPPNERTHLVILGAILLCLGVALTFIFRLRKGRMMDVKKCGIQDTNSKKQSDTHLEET

B1: BiPDL4-44 (antibody, V domains shown)
VH: QVQLVESGGGVIQPGRSLRLSCAASGFTFSAYLMHWVRQAPGKGLEWVAAIGYDGMNKYYADSVKGRFTISRDNSKNTLYLQMNSLRAEDTAVYYCARAGIEYSYAYTDYWGQGTLVTVSS
VL: EIVLTQSPGTLSLSPGERATLSCRASHSVVSSYLAWYQQKPGQAPRLLIYGASSREDGIPDRFSGSGSGTDFTLTISRLEPEDFAVYYCVQFGWWPPRTFGGGTKVEIK
notes: Fourth generation, IgG
As to B1, the “EC50 (read off the curve); Fold induction of luciferase, Promega: CHO-PD-L1/PD-L2 dual cells with PD-1 Jurkat reporter cells (PD-L1 and PD-L2 not separable)” value in [1] and in assay [2] was about 1 nM throughout. Also, the Kd in [3] came out at 7.89 nM; in assay [4], 0.889 nM; in [5], 0.793 nM; in assay [6], 0.555 nM; in assay [7] it was 0.417 nM; in [8] it was 4.14 nM.

B2: BiPDL4-24 Fab (Fab, V domains shown)
VH: QVQLVESGGGVVQPGRSLRLSCAASGFTFDEYGMHWVRQAPGKGLEWVAVIGYDGLNKYYADSVKGRFTISRDNSKNTLYLQMNSLRAEDTAVYYCARAGIEYSYAYTDYWGQGTLVTVSS
VL: EIVLTQSPGTLSLSPGERATLSCRASNSVVSSYLAWYQQKPGQAPRLLIYGAASRANGIPDRFSGSGSGTDFTLTISRLEPEDFAVYYCVQFGWWPPRTFGGGTKVEIK
notes: Fab made by papain digestion of the IgG
With B2, the dissociation constant (Kd) was 0.12 nM in assay [9], 0.475 nM in [10] and 6.57 nM in assay [11].

B3: BiPDL4-24 (antibody, V domains shown)
VH: QVQLVESGGGVVQPGRSLRLSCAASGFTFDEYGMHWVRQAPGKGLEWVAVIGYDGLNKYYADSVKGRFTISRDNSKNTLYLQMNSLRAEDTAVYYCARAGIEYSYAYTDYWGQGTLVTVSS
VL: EIVLTQSPGTLSLSPGERATLSCRASNSVVSSYLAWYQQKPGQAPRLLIYGAASRANGIPDRFSGSGSGTDFTLTISRLEPEDFAVYYCVQFGWWPPRTFGGGTKVEIK
notes: Fourth generation, IgG
For the molecule B3, the Kd is 7.24 nM in [3]; 0.497 nM in assay [4]; 0.677 nM in assay [5]; 0.838 nM in assay [6]; 0.458 nM in [7]; 6.77 nM in assay [8].

B4: BiPDL4-44 Fab (Fab, V domains shown)
VH: QVQLVESGGGVIQPGRSLRLSCAASGFTFSAYLMHWVRQAPGKGLEWVAAIGYDGMNKYYADSVKGRFTISRDNSKNTLYLQMNSLRAEDTAVYYCARAGIEYSYAYTDYWGQGTLVTVSS
VL: EIVLTQSPGTLSLSPGERATLSCRASHSVVSSYLAWYQQKPGQAPRLLIYGASSREDGIPDRFSGSGSGTDFTLTISRLEPEDFAVYYCVQFGWWPPRTFGGGTKVEIK
notes: as for B2
Consider B4, for which the Kd is 0.15 nM in assay [9], 0.437 nM in assay [10] and 6 nM in [11].

A word on the Kd: it is a measure of binding affinity in units of concentration. The low end stands for tighter binding, the high end for weaker binding.

Values taken from patent US20250059282A1 (University of Texas, published 2025).
